# Measurements taken from US10337047.
# T1: HNE specific peptide GSGSGGGAAPVAAKGGGSGSC (not fully specified)
# T1 chain: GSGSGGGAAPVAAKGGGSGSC
# B1: recombinant Human Neutrophil Elastase (HNE) (protein)
# chain: IVGGRRARPHAWPFMVSLQLRGGHFCGATLIAPNFVMSAAHCVANVNVRAVRVVLGAHNLSRREPTRQVFAVQRIFENGYDPVNLLNDIVILQLNGSATINANVQVAQLPAQGRRLGNGVQCLAMGWGLLGRNRGIASVLQELNVTVVTSLCRRSNVCTLVRGRQAGVCFGDSGSPLVCNGLIHGIASFVRGGCASGLYPDAFAPVAQFVNWIDSIIQ
# B2: recombinant Cathepsin-G enzyme (protein)
# chain: IIGGRESRPHSRPYMAYLQIQSPAGQSRCGGFLVREDFVLTAAHCWGSNINVTLGAHNIQRRENTQQHITARRAIRHPQYNQRTIQNDIMLLQLSRRVRRNRNVNPVALPRAQEGLRPGTLCTVAGWGRVSMRRGTDTLREVQLRVQRDRQCLRIFGSYDPRRQICVGDRRERKAAFKGDSGGPLLCNNVAHGIVSYGKSSGVPPEVFTRVSSFLPWIRTTMRS
# Biological target: T1, HNE specific peptide …
Protein,"cleavage on the multiplex sensor, HNE alone at 100 ng/mL","cleavage on the multiplex sensor, ratio 0 uL Cathepsin-G to 100 uL HNE",detection limit of cleavage in spiked saliva (colorimetric),"detection limit of proteolytic cleavage of the peptide-magnetic bead layer (colorimetric, visible bare gold surface)","cleavage on the multiplex sensor, Cathepsin-G alone at 100 ng/mL","cleavage on the multiplex sensor, ratio 100 uL Cathepsin-G to 0 uL HNE"
B1,maximum reaction was seen in the bottom band containing HNE,maximum cleavage was seen on the HNE sensor (Bottom band) where a golden color change was visible,The limits of detection for both spiked proteases were comparable to those obtained with the purified proteases,detection limit to be as low as 1 pg/mL for HNE,–,–
B2,–,–,–,–,there was no cleavage seen in the bottom band,there was no reaction seen on the HNE sensor (Bottom band)
